Data from patent US20240294607.

Test system: T1, His-Tag-FGG (recombinant human fibrinogen gamma chain with N-terminal His-tag, produced in E. coli)
T1 sequence: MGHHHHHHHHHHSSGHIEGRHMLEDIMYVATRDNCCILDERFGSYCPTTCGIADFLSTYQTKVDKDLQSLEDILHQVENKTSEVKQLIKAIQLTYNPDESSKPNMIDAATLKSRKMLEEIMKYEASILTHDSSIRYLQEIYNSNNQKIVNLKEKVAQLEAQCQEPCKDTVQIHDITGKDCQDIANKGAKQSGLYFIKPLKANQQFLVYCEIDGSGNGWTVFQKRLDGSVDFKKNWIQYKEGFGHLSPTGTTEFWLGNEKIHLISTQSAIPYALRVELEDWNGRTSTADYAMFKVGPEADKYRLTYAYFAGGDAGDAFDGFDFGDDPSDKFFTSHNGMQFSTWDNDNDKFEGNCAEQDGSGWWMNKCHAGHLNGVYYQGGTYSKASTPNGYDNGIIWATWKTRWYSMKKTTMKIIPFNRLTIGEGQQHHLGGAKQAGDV

## factor XIII
  SDS-PAGE analysis of polymerization (crosslinking) of FGG with factor XIII: recombinant FGG can be crosslinked by factor XIII and produces dimers (about 100 kDa) and higher molecular weight FGG structures
